Consider two compounds from patent US20230340136A1, “TREATMENT OF CLL” (NOVARTIS AG, priority 2020, published 2023).

One series concerns BAFF. In words: Phase Ib study CVAY736Y2102: free (soluble) BAFF. Details: species or system human. The following applies: in vivo. The text has this:
(§1) The dosing cycle is 28 days. […] During the dose expansion part of the study, ibrutinib will be continued at the same dose schedule as tolerated before study enrollment, see exclusion criteria above for additional information on dose level.

The target in the next series is T1, BAFF receptor (Homo sapiens, UniProt Q96RJ3).
T1 construct: endogenous in cells; host or cells: B cells / tissue of CLL patients in study CVAY736Y2102 (for A6: simulated by a PK/PD model, not measured)
In words: Phase Ib study CVAY736Y2102: BAFF receptor occupancy. It is filed as in vivo. The following applies: VAY736 doses of 3 mg/kg or above.
From the text: as §1

Series [1] is described as follows: Phase Ib study CVAY736Y2102: pharmacokinetics of VAY736. Format: in vivo, human. The following applies: in combination with ibrutinib.
From the text: as §1

The next series deals with BTK^C481S (Homo sapiens, UniProt Q06187, C481S). The following applies: cited from earlier work.
Sequence of BTK^C481S (Q06187 whole entry C481S): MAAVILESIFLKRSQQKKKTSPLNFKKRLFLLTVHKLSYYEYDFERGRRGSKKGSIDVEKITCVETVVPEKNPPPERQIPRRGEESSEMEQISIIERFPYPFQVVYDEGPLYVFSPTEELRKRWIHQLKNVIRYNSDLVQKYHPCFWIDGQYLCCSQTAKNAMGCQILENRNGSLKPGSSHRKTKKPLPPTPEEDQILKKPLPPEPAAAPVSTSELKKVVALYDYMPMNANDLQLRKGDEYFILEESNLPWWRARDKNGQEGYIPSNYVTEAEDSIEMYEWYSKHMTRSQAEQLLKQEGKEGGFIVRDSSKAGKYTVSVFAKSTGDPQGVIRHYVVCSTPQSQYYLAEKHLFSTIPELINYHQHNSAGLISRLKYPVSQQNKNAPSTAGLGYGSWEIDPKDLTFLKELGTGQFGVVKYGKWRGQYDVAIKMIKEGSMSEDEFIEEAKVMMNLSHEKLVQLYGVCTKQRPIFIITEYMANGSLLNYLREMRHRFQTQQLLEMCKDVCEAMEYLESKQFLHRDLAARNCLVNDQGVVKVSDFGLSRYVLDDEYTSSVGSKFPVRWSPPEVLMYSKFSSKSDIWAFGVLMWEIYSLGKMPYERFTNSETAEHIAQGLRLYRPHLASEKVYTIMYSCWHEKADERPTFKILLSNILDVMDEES

For “VAY736: non-fucosylated human IgG1 kappa anti-BAFFR antibody, heavy chain SEQ ID NO: 9, light chain SEQ ID NO: 10”, the “Free BAFF” value in the series on BAFF was “accumulated to steady state with no dose relationship”. Further, the Tissue receptor occupancy with BAFF receptor was greater than 99%. In addition, in series [1], the “VAY736 concentration: dose dependence” value is “increased with dose” and the “dose at which linear PK achieved” value is reported as no less than 3 mg/kg.

Regarding `C[C@H]1CN(C2COC2)CCN1c1ccc(Nc2cc(-c3ccnc(N4CCn5c(cc6c5CC(C)(C)C6)C4=O)c3CO)cn(C)c2=O)nc1` [fenebrutinib], on BTK^C481S, the “activity against ibrutinib-resistant BTK^C481S mutation” value was “active against ibrutinib-resistant BTK^C481S”.
